Measured values as given in article PMC10786891, “Massively parallel profiling of RNA-targeting CRISPR-Cas13d”.

Target: T1, EsCas13d, nuclease-dead (Eubacterium siraeum, UniProt B0MS50, R295A;H300A;R849A;H854A)
T1 sequence: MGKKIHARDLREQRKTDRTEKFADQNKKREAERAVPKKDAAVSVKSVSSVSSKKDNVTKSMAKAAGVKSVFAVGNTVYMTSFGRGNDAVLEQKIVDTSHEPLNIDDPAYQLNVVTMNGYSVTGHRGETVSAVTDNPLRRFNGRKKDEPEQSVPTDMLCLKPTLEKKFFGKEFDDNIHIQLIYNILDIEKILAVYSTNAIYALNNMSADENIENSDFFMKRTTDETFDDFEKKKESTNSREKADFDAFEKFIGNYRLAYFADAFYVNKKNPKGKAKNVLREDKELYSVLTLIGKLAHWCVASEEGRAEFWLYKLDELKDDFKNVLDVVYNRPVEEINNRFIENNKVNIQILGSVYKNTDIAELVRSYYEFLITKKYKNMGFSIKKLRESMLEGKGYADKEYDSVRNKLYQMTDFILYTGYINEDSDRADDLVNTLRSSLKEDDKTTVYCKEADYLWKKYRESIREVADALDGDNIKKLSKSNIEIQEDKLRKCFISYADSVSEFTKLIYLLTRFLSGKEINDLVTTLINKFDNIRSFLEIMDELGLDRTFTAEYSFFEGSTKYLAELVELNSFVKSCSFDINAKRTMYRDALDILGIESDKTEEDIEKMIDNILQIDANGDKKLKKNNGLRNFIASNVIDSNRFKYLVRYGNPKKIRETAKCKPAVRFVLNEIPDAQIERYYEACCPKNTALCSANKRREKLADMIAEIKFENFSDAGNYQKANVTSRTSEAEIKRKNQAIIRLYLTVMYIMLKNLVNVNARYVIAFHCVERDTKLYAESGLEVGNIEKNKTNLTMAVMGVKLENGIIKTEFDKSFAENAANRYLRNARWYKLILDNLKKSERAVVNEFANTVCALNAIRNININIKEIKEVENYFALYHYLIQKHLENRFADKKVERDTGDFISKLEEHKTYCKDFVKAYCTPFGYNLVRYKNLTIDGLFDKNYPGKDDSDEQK
Assay: crRNA (strand 1, pre-loaded); Mg2+; 40 mM Tris-HCl pH 7.5, 150 mM NaCl, 6 mM MgCl2, 1 mM DTT, 0.1% Tween-20, 0.2 mg/ml BSA; 25 C; 10 min per concentration, then washed
Conditions: tags: His6-TwinStrep-SUMO cleaved; N-terminal SNAP kept (SNAP-Surface 488); label: 3' end held by stalled T7 RNA polymerase

| Binder | Kd [µM] |
| --- | --- |
| target 1 insU 3' of 14,insC 3' of 12 (mixed) RNA 1: CACCCGUGCAAAAAUGCAGGGGUCUAAAACUGAGCGGAUAACCUCUCUAUGG RNA 2: GGGAAUGGAUCCACAUCUACGAAUUCGUACCAUAGAGAUGGCUUAUCCGCUCACCGAGAUCGGAAGAGCACACGU | 0.05 ± 0.01 |
| target 1 G12A,G15U (mixed) RNA 1: CACCCGUGCAAAAAUGCAGGGGUCUAAAACUGAGCGGAUAACCUCUCUAUGG RNA 2: GGGAAUGGAUCCACAUCUACGAAUUCGUACCAUAGAUAGAUUAUCCGCUCACCGAGAUCGGAAGAGCACACGU | 0.0187 ± 0.0025 |
| target 1 insC 3' of 12,insU 3' of 9 (mixed) RNA 1: CACCCGUGCAAAAAUGCAGGGGUCUAAAACUGAGCGGAUAACCUCUCUAUGG RNA 2: GGGAAUGGAUCCACAUCUACGAAUUCGUACCAUAGAGAGGCUUAUUCCGCUCACCGAGAUCGGAAGAGCACACGU | 0.014 ± 0.0022 |
| target 1 C7A,U8C (mixed) RNA 1: CACCCGUGCAAAAAUGCAGGGGUCUAAAACUGAGCGGAUAACCUCUCUAUGG RNA 2: GGGAAUGGAUCCACAUCUACGAAUUCGUACCAUAGAGAGGUUACACGCUCACCGAGAUCGGAAGAGCACACGU | 0.009 ± 0.0004 |
| target 1 insG 3' of 10,insG 3' of 3 (mixed) RNA 1: CACCCGUGCAAAAAUGCAGGGGUCUAAAACUGAGCGGAUAACCUCUCUAUGG RNA 2: GGGAAUGGAUCCACAUCUACGAAUUCGUACCAUAGAGAGGUUGAUCCGCUGCACCGAGAUCGGAAGAGCACACGU | 0.0284 ± 0.0028 |
| target 1 C2A,U10A (mixed) RNA 1: CACCCGUGCAAAAAUGCAGGGGUCUAAAACUGAGCGGAUAACCUCUCUAUGG RNA 2: GGGAAUGGAUCCACAUCUACGAAUUCGUACCAUAGAGAGGUAAUCCGCUAACCGAGAUCGGAAGAGCACACGU | 0.0139 ± 0.0008 |
| target 1 insA 3' of 12,insG 3' of 3 (mixed) RNA 1: CACCCGUGCAAAAAUGCAGGGGUCUAAAACUGAGCGGAUAACCUCUCUAUGG RNA 2: GGGAAUGGAUCCACAUCUACGAAUUCGUACCAUAGAGAGGAUUAUCCGCUGCACCGAGAUCGGAAGAGCACACGU | 0.0187 ± 0.0016 |
| target 1 A18U,C21U (mixed) RNA 1: CACCCGUGCAAAAAUGCAGGGGUCUAAAACUGAGCGGAUAACCUCUCUAUGG RNA 2: GGGAAUGGAUCCACAUCUACGAAUUCGUACUAUUGAGAGGUUAUCCGCUCACCGAGAUCGGAAGAGCACACGU | 0.0065 ± 0.00032 |
| target 1 A1G,A18G (mixed) RNA 1: CACCCGUGCAAAAAUGCAGGGGUCUAAAACUGAGCGGAUAACCUCUCUAUGG RNA 2: GGGAAUGGAUCCACAUCUACGAAUUCGUACCAUGGAGAGGUUAUCCGCUCGCCGAGAUCGGAAGAGCACACGU | 0.074 ± 0.021 |
| target 1 C6U,G15U (mixed) RNA 1: CACCCGUGCAAAAAUGCAGGGGUCUAAAACUGAGCGGAUAACCUCUCUAUGG RNA 2: GGGAAUGGAUCCACAUCUACGAAUUCGUACCAUAGAUAGGUUAUCUGCUCACCGAGAUCGGAAGAGCACACGU | 0.0329 ± 0.0019 |
| target 1 insU 3' of 18,insU 3' of 5 (mixed) RNA 1: CACCCGUGCAAAAAUGCAGGGGUCUAAAACUGAGCGGAUAACCUCUCUAUGG RNA 2: GGGAAUGGAUCCACAUCUACGAAUUCGUACCAUAUGAGAGGUUAUCCGUCUCACCGAGAUCGGAAGAGCACACGU | 0.048 ± 0.005 |
| target 1 insU 3' of 17,insC 3' of 15 (mixed) RNA 1: CACCCGUGCAAAAAUGCAGGGGUCUAAAACUGAGCGGAUAACCUCUCUAUGG RNA 2: GGGAAUGGAUCCACAUCUACGAAUUCGUACCAUAGUAGCAGGUUAUCCGCUCACCGAGAUCGGAAGAGCACACGU | 0.0261 ± 0.0018 |
| target 1 insG 3' of 11,insA 3' of 2 (mixed) RNA 1: CACCCGUGCAAAAAUGCAGGGGUCUAAAACUGAGCGGAUAACCUCUCUAUGG RNA 2: GGGAAUGGAUCCACAUCUACGAAUUCGUACCAUAGAGAGGUGUAUCCGCUCAACCGAGAUCGGAAGAGCACACGU | 0.049 ± 0.006 |
| target 1 insG 3' of 11,insC 3' of 1 (mixed) RNA 1: CACCCGUGCAAAAAUGCAGGGGUCUAAAACUGAGCGGAUAACCUCUCUAUGG RNA 2: GGGAAUGGAUCCACAUCUACGAAUUCGUACCAUAGAGAGGUGUAUCCGCUCACCCGAGAUCGGAAGAGCACACGU | 0.035 ± 0.006 |
| target 1 U3A,G12A (mixed) RNA 1: CACCCGUGCAAAAAUGCAGGGGUCUAAAACUGAGCGGAUAACCUCUCUAUGG RNA 2: GGGAAUGGAUCCACAUCUACGAAUUCGUACCAUAGAGAGAUUAUCCGCACACCGAGAUCGGAAGAGCACACGU | 0.00412 ± 0.00033 |
| target 1 insG 3' of 14,insC 3' of 1 (mixed) RNA 1: CACCCGUGCAAAAAUGCAGGGGUCUAAAACUGAGCGGAUAACCUCUCUAUGG RNA 2: GGGAAUGGAUCCACAUCUACGAAUUCGUACCAUAGAGAGGGUUAUCCGCUCACCCGAGAUCGGAAGAGCACACGU | 0.0104 ± 0.0004 |
| target 1 insU 3' of 15,insG 3' of 2 (mixed) RNA 1: CACCCGUGCAAAAAUGCAGGGGUCUAAAACUGAGCGGAUAACCUCUCUAUGG RNA 2: GGGAAUGGAUCCACAUCUACGAAUUCGUACCAUAGAGUAGGUUAUCCGCUCGACCGAGAUCGGAAGAGCACACGU | 0.0097 ± 0.0007 |
| target 1 insA 3' of 10,insU 3' of 2 (mixed) RNA 1: CACCCGUGCAAAAAUGCAGGGGUCUAAAACUGAGCGGAUAACCUCUCUAUGG RNA 2: GGGAAUGGAUCCACAUCUACGAAUUCGUACCAUAGAGAGGUUAAUCCGCUCUACCGAGAUCGGAAGAGCACACGU | 0.0138 ± 0.0007 |
| target 1 U3A,A20U (mixed) RNA 1: CACCCGUGCAAAAAUGCAGGGGUCUAAAACUGAGCGGAUAACCUCUCUAUGG RNA 2: GGGAAUGGAUCCACAUCUACGAAUUCGUACCUUAGAGAGGUUAUCCGCACACCGAGAUCGGAAGAGCACACGU | 0.044 ± 0.004 |
| target 1 U19C,C22A (mixed) RNA 1: CACCCGUGCAAAAAUGCAGGGGUCUAAAACUGAGCGGAUAACCUCUCUAUGG RNA 2: GGGAAUGGAUCCACAUCUACGAAUUCGUAACACAGAGAGGUUAUCCGCUCACCGAGAUCGGAAGAGCACACGU | 0.043 ± 0.005 |
| target 1 insC 3' of 5,insG 3' of 3 (mixed) RNA 1: CACCCGUGCAAAAAUGCAGGGGUCUAAAACUGAGCGGAUAACCUCUCUAUGG RNA 2: GGGAAUGGAUCCACAUCUACGAAUUCGUACCAUAGAGAGGUUAUCCGCCUGCACCGAGAUCGGAAGAGCACACGU | 0.0249 ± 0.0023 |
| target 1 insG 3' of 14,insA 3' of 2 (mixed) RNA 1: CACCCGUGCAAAAAUGCAGGGGUCUAAAACUGAGCGGAUAACCUCUCUAUGG RNA 2: GGGAAUGGAUCCACAUCUACGAAUUCGUACCAUAGAGAGGGUUAUCCGCUCAACCGAGAUCGGAAGAGCACACGU | 0.0133 ± 0.0016 |
| target 1 G5C,G15C (mixed) RNA 1: CACCCGUGCAAAAAUGCAGGGGUCUAAAACUGAGCGGAUAACCUCUCUAUGG RNA 2: GGGAAUGGAUCCACAUCUACGAAUUCGUACCAUAGACAGGUUAUCCCCUCACCGAGAUCGGAAGAGCACACGU | 0.038 ± 0.005 |
| target 1 insG 3' of 19,insU 3' of 15 (mixed) RNA 1: CACCCGUGCAAAAAUGCAGGGGUCUAAAACUGAGCGGAUAACCUCUCUAUGG RNA 2: GGGAAUGGAUCCACAUCUACGAAUUCGUACCAUGAGAGUAGGUUAUCCGCUCACCGAGAUCGGAAGAGCACACGU | 0.06 ± 0.009 |
| target 1 insG 3' of 14,insG 3' of 3 (mixed) RNA 1: CACCCGUGCAAAAAUGCAGGGGUCUAAAACUGAGCGGAUAACCUCUCUAUGG RNA 2: GGGAAUGGAUCCACAUCUACGAAUUCGUACCAUAGAGAGGGUUAUCCGCUGCACCGAGAUCGGAAGAGCACACGU | 0.0079 ± 0.0004 |
| target 1 insA 3' of 21,insG 3' of 20 (mixed) RNA 1: CACCCGUGCAAAAAUGCAGGGGUCUAAAACUGAGCGGAUAACCUCUCUAUGG RNA 2: GGGAAUGGAUCCACAUCUACGAAUUCGUACCAAGUAGAGAGGUUAUCCGCUCACCGAGAUCGGAAGAGCACACGU | 0.024 ± 0.004 |
| target 1 insG 3' of 14,insG 3' of 1 (mixed) RNA 1: CACCCGUGCAAAAAUGCAGGGGUCUAAAACUGAGCGGAUAACCUCUCUAUGG RNA 2: GGGAAUGGAUCCACAUCUACGAAUUCGUACCAUAGAGAGGGUUAUCCGCUCAGCCGAGAUCGGAAGAGCACACGU | 0.0113 ± 0.0007 |
| target 1 C2G,G15U (mixed) RNA 1: CACCCGUGCAAAAAUGCAGGGGUCUAAAACUGAGCGGAUAACCUCUCUAUGG RNA 2: GGGAAUGGAUCCACAUCUACGAAUUCGUACCAUAGAUAGGUUAUCCGCUGACCGAGAUCGGAAGAGCACACGU | 0.033 ± 0.013 |
